The record followed here is publication PMC7392197 (Journal of the American Chemical Society, 2020).

The data set deals with the molecule itself. As to the kind of experiment: SEC.

B1: His6-MBP-UvrC fusion protein (holo form, with [4Fe4S] cluster) (enzyme, E. coli, UniProt P0A8G0 1-610, looked up)
chain: MSDQFDAKAFLKTVTSQPGVYRMYDAGGTVIYVGKAKDLKKRLSSYFRSNLASRKTEALVAQIQQIDVTVTHTETEALLLEHNYIKLYQPRYNVLLRDDKSYPFIFLSGDTHPRLAMHRGAKHAKGEYFGPFPNGYAVRETLALLQKIFPIRQCENSVYRNRSRPCLQYQIGRCLGPCVEGLVSEEEYAQQVEYVRLFLSGKDDQVLTQLISRMETASQNLEFEEAARIRDQIQAVRRVTEKQFVSNTGDDLDVIGVAFDAGMACVHVLFIRQGKVLGSRSYFPKVPGGTELSEVVETFVGQFYLQGSQMRTLPGEILLDFNLSDKTLLADSLSELAGRKINVQTKPRGDRARYLKLARTNAATALTSKLSQQSTVHQRLTALASVLKLPEVKRMECFDISHTMGEQTVASCVVFDANGPLRAEYRRYNITGITPGDDYAAMNQVLRRRYGKAIDDSKIPDVILIDGGKGQLAQAKNVFAELDVSWDKNHPLLLGVAKGADRKAGLETLFFEPEGEGFSLPPDSPALHVIQHIRDESHDHAIGGHRKKRAKVKNTSSLETIEGVGPKRRQMLLKYMGGLQGLRNASVEEIAKVPGISQGLAEKIFWSLKH
By stoichiometry N is commonly meant a count of units in the complex or per binding partner. B1: the “stoichiometry N” value is 2.
